Experimental data taken from patent publication CN113975385A (dated 2022).

Molecular target: T1, human CD20 on Raji cells (human, UniProt P11836 1-297)
T1 construct: whole, on cells; also called Raji (CD20+/CD3-细胞)
T1 sequence (looked up): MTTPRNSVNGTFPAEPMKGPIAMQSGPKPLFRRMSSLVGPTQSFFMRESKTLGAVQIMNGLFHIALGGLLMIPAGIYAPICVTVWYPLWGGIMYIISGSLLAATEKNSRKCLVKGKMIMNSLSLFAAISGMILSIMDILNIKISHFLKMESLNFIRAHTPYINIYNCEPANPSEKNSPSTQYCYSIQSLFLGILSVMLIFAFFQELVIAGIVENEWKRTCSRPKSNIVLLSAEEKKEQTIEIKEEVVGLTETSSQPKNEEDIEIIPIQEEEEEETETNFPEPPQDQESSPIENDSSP
Experiment: FACS, simultaneous binding: Calcein-AM Raji and FarRed Jurkat cells mixed 1:1, percent double-positive cells

binding result: binds
B1: W3278-U2T3.F18R-1.uIgG4.SP (bispecific antibody)
chain 1: QVQLQQPGAELVKPGASVKMSCKASGYTFTSYNMHWVKQTPGRGLEWIGAIYPGNGDTSYNQKFKGKATLTADKSSSTAYMQLSSLTSEDSAVYYCARSTYYGGDWYFNVWGAGTTVTVSAASTKGPSVFPLAPCSRSTSESTAALGCLVKDYFPEPVTVSWNSGALTSGVHTFPAVLQSSGLYSLSSVVTVPSSSLGTKTYTCNVDHKPSNTKVDKRVGGGGSGGGGSQVQLVQSGAEVKKPGSSVKVSCKASGFAFTDYYIHWVRQAPGQGLEWMGWISPGNVNTKYNENFKGRVTITADKSTSTAYMELSSLRSEDTAVYYCARDGYSLYYFDYWGQGTLVTVLEDLKNVFPPEVAVFEPSEAEISHTQKATLVCLATGFYPDHVELSWWVNGKEVHSGVCTDPQPLKEQPALQDSRYALSSRLRVSATFWQNPRNHFRCQVQFYGLSENDEWTQDRAKPVTQIVSAEAWGRYGPPCPPCPAPEFLGGPSVFLFPPKPKDTLMISRTPEVTCVVVDVSQEDPEVQFNWYVDGVEVHNAKTKPREEQFNSTYRVVSVLTVLHQDWLNGKEYKCKVSNKGLPSSIEKTISKAKGQPREPQVYTLPPCQEEMTKNQVSLWCLVKGFYPSDIAVEWESNGQPENNYKTTPPVLDSDGSFFLYSRLTVDKSRWQEGNVFSCSVMHEALHNHYTQKSLSLSLG
chain 2: QVQLQQPGAELVKPGASVKMSCKASGYTFTSYNMHWVKQTPGRGLEWIGAIYPGNGDTSYNQKFKGKATLTADKSSSTAYMQLSSLTSEDSAVYYCARSTYYGGDWYFNVWGAGTTVTVSAASTKGPSVFPLAPCSRSTSESTAALGCLVKDYFPEPVTVSWNSGALTSGVHTFPAVLQSSGLYSLSSVVTVPSSSLGTKTYTCNVDHKPSNTKVDKRVESKYGPPCPPCPAPEFLGGPSVFLFPPKPKDTLMISRTPEVTCVVVDVSQEDPEVQFNWYVDGVEVHNAKTKPREEQFNSTYRVVSVLTVLHQDWLNGKEYKCKVSNKGLPSSIEKTISKAKGQPREPQVCTLPPSQEEMTKNQVSLSCAVKGFYPSDIAVEWESNGQPENNYKTTPPVLDSDGSFFLVSRLTVDKSRWQEGNVFSCSVMHEALHNHYTQKSLSLSLG
chain 3: QIVLSQSPAILSASPGEKVTMTCRASSSVSYIHWFQQKPGSSPKPWIYATSNLASGVPVRFSGSGSGTSYSLTISRVEAEDAATYYCQQWTSNPPTFGGGTKLEIKRTVAAPSVFIFPPSDEQLKSGTASVVCLLNNFYPREAKVQWKVDNALQSGNSQESVTEQDSKDSTYSLSSTLTLSKADYEKHKVYACEVTHQGLSSPVTKSFNRGEC
light: DIVMTQSPDSLAVSLGERATINCKSSQSLLNSRTRKNYLAWYQQKPGQPPKLLIYWASTRQSGVPDRFSGSGSGTDFTLTISSLQAEDVAVYYCTQSHTLRTFGGGTKVEIKPDIQNPDPAVYQLRDSKSSDKSVCLFTDFDSQTQVSQSKDSDVYITDKCVLDMRSMDFKSNSAVAWSQKSDFACANAFQNSIIPEDTFFPSPESS
notes: WuXiBody format F18R-1, human IgG4 with S228P and knobs-into-holes; also called WBP3278 lead Ab; W3278 lead Ab
